Columns and labels:
PDL1-Fc fusion protein [1] = target: T1, PDL1-Fc fusion protein (human); assay: ELISA, ratio of OD on PDL1-Fc to OD of blank control
T1 construct: expressed in CHO or HEK293 cells; also called Human PDL1-Fc; recombinant human PDL1-Fc

PDL1-Fc fusion protein [2] = target: T1, PDL1-Fc fusion protein; assay: ELISA, ratio of OD on PDL1-Fc to OD on Fc protein
Fc protein = target: T2, Fc protein; assay: ELISA, Fc protein coated, 100 ng dAb per well
T2 construct: counter-screen antigen for the Fc moiety of PDL1-Fc

PDL1-Fc fusion protein [3] = target: T1, PDL1-Fc fusion protein; assay: ELISA, PDL1-Fc coated, 100 ng dAb per well, anti-His detection
PDL1-Fc fusion protein [4] = target: T1, PDL1-Fc fusion protein; assay: competitive ELISA, PDL1-Fc coated, dilution series of antibody with 100 ug/mL PD1-Fc-Biotin (competitor)
PDL1-Fc fusion protein [5] = target: T1, PDL1-Fc fusion protein; assay: SPR, BIAcore X100, PDL1-Fc on CM5 chip, antibody as analyte, 25 C
PDL1-Fc fusion protein [6] = target: T1, PDL1-Fc fusion protein; assay: ELISA, dAb coated 0.5 ug/well, dilution series of PDL1-Fc, anti-human IgG-Fc-HRP
PDL1-Fc fusion protein [7] = target: T1, PDL1-Fc fusion protein; assay: competitive ELISA, PDL1-Fc coated, 100 ng dAb and 10 ug PD1-Fc-Biotin (competitor); remaining PD1-Fc-Biotin signal
PDL1-Fc fusion protein [8] = target: T1, PDL1-Fc fusion protein; assay: competitive ELISA: PDL1-Fc coated 0.5 µg/well, dilution series of the antibody with PD1-Fc-Biotin 100 µg/mL (blocked ligand), SA-HRP, OD405; the sheet labels it EC50, paragraph 198 calls it IC50; unit from the axis
PDL1-Fc fusion protein [9] = target: T1, PDL1-Fc fusion protein; assay: ELISA: plate coated with the single domain antibody 0.5 µg/well, dilution series of PDL1-Fc, anti-human IgG-Fc-HRP, OD405, four-parameter fit; unit from the axis 'Log Conc(ng/mL)', the concentration of PDL1-Fc
Mouse PDL1-Fc protein = target: T3, Mouse PDL1-Fc protein (mouse); assay: ELISA, mouse PDL1-Fc coated, anti-His detection
T3 construct: expressed in HEK293 cells; also called mouse PDL1-Fc fusion protein; mice PDL1-Fc

[10] = target: T4, human PDL1 protein on the cell membrane (human, UniProt Q9NZQ7 19-290); assay: flow cytometry competition: 293-PDL1 cells, single domain antibody plus hPD-1-Fc-biotin 0.3 µg (blocked ligand), SA-PE; right panel
T4 construct: whole, on cells; also used here for Raji-PDL1 cells and for native PDL1 on lung cancer tissue sections; also called Raji-PDL1

| Binder | OD (PDL1/blank) (PDL1-Fc fusion protein [1]) [ratio] | OD (PDL1/Fc) (PDL1-Fc fusion protein [2]) [ratio] | OD (against Fc) (Fc protein) | OD (against PDL1) (PDL1-Fc fusion protein [3]) | IC50 (PDL1-Fc fusion protein [4]) [µg/mL] | Kd (PDL1-Fc fusion protein [5]) [nM] | EC50 (PDL1-Fc fusion protein [6]) [µg/mL] | OD (PDL1-Fc fusion protein [7]) | IC50 (PDL1-Fc fusion protein [8]) [µg/mL] | EC50 (PDL1-Fc fusion protein [9]) [µg/mL] | binding result (Mouse PDL1-Fc protein) | binding result [10] |
| --- | --- | --- | --- | --- | --- | --- | --- | --- | --- | --- | --- | --- |
| PDL1-38 dAb (VHH, camel heavy chain single domain antibody expressed in E. coli, purified on nickel; also called antibody No. 38; not shown: His tag from expression vector PET32b) VHH: QVQLQESGGGSVQAGGSLRLSCAVSGFISSRRCMGWFRQAPGKERVGVANITGTGNTYLADSVKGRFTISQNNAKSTVYLQMNSLKPEDTAMYYCAADSFPTCTVVASSGAFQYWGQGTQVTVSS | 36.7 | 30.5 | 0.065 OD (405 nm) | 1.98 OD (405 nm) | – | – | – | – | – | – | – | – |
| PDL1-27 dAb (VHH, camel heavy chain single domain antibody expressed in E. coli, purified on nickel; also called antibody No. 27; not shown: His tag from expression vector PET32b) VHH: QVQLQESGGGSVQAGGSLRLSCAASGNISSRRCMAWFRQAPGKERERVANILTTTGNTYLADSVKGRFTISQNNAKSTVYLQMNSLKPEDTAMYYCAADSFHDPTCTVVASSGAFQYWGQGTQVTVSS | 48.5 | 32.8 | 0.08 OD (405 nm) | 2.62 OD (405 nm) | ~0.917 | 0.771 | ~0.005 | 0.161 OD (405 nm) | 0.917 | 0.00568 | – | – |
| PDL1-81 dAb (VHH, camel heavy chain single domain antibody expressed in E. coli, purified on nickel; also called antibody No. 81; not shown: His tag from expression vector PET32b) VHH: QVQLQESGGGSVQAGGSLRLSCAASGNIIRVRCMAWFRQAPGKERERGPNILTTTISTYLADSVKGRFTISQNNAKSTVYLQMNSLKPEDTAMYYCAADSFGYPTCPGPASSGAFQYWGQGTQVTVSS | 49.6 | 31.5 | 0.085 OD (405 nm) | 2.68 OD (405 nm) | – | 0.548 | – | 0.429 OD (405 nm) | – | – | – | – |
| PDL1-87 dAb (VHH, camel heavy chain single domain antibody expressed in E. coli, purified on nickel; also called antibody No. 87; not shown: His tag from expression vector PET32b) VHH: QVQLQESGGGSVQAGGSLKLSCAASGYIFSSCGMGWYRQAPGKERELVSTISSDGTTSYADSVKGRFTISQDNAKNTLYLQMNSLKTEDTAVYYCVADCPPIPEFTSCSGGYCLSGDYWGQGTQVTVSS | 41.4 | 18 | 0.124 OD (405 nm) | 2.24 OD (405 nm) | – | – | – | 0.897 OD (405 nm) | – | – | – | – |
| PDL1-69 dAb (VHH, camel heavy chain single domain antibody expressed in E. coli, purified on nickel; also called antibody No. 69; not shown: His tag from expression vector PET32b) VHH: QVQLQESGGGSVQAGGSLRLSCAVQRNISSSYCMAWFRQAPGKQRERVDKILTTPGNTYLADSVKGRFTISQNNAKSTVYLQMNSLKPEDTAMYYCAADSFQKPTCTVVASWPAFQYWGQGTQVTVSS | 21.7 | 7.1 | 0.165 OD (405 nm) | 1.17 OD (405 nm) | – | – | – | – | – | – | – | – |
| PDL1-10 dAb (VHH, camel heavy chain single domain antibody expressed in E. coli, purified on nickel; also called antibody No. 10; not shown: His tag from expression vector PET32b) VHH: QVQLQESGGGSVQAGGSLRLSCAASGNIVSSYCMGWFRQAPGKERVGVAAIDSDGTTKYADSMKGRFTISKDNAKNTLDLQMNSLKPEDTAMYYCVARLNCPGPVDWVPMFPYRGQGTQVTVSS | 15.8 | 8.63 | 0.099 OD (405 nm) | 0.854 OD (405 nm) | – | – | – | 0.126 OD (405 nm) | – | – | no binding (tested: 100 ng per well) | binds |
| PDL1-94 dAb (VHH, camel heavy chain single domain antibody expressed in E. coli, purified on nickel; also called antibody No. 94; not shown: His tag from expression vector PET32b) VHH: QVQLQESGGGSVQAGGSLRLSCAASLNIFSSYCMGWFRQAPGKQRVGVATIDSDGTTRYVDSVKGRFTISKDNAKNTLDLQMNSLKPEDTAMYYCAARLNCPGPVDWVPMFPYRGQGTQVTVSS | 16.2 | 10.3 | 0.085 OD (405 nm) | 0.875 OD (405 nm) | – | – | – | – | – | – | – | – |
